Measured values taken from US20130273026A1, “COMPOSITION AND METHOD FOR MODULATING INFLAMMATORY MOLECULES WITH AMYLASE” (INTEGRATIVE ENZYMATICS, INC., priority 2012, published 2013).
Counter-ions that a name gives are not always drawn.

Legend:
BKS.Cg-Dock7m mice [1] = assay: Urine Protein Urea/Creatinine ratio; type: in vivo; conditions: for Nephroprotective effect: from Protein Urea to Creatinine ratio
Protocol: (§1) BKS.Cg-Dock7m mice were treated with control and an Amylase compound according to an embodiment of the present invention. In the absence of treatment, the BKS.Cg-Dock7m mice are homozygous for the diabetes spontaneous mutation (Lepr^db) and become obese at approximately three to four weeks of age. […] At the beginning of the animal trial, the test animals were obese, severely hyperinsulemic and hyperglycemic. After 28 consecutive days of dosing, the animals were euthanized and tissue analyzed. Compounds described herein were tested against the positive control of Metformin hydrochloride (“Metformin”)
(§2) 1× (used synonymously with TV1) and 3× (used synonymously with TV2) doses of human alpha-Amylase enzyme (referred to herein as Test Compound 1) were determined to be 80 Units/Liter of blood volume and 240 Units/Liter of blood volume respectively. Animals were manually restrained and administered a target volume of 300 μL of phosphate buffered saline (PBS) (vehicle), by IP injection, once per day, on Days 1-28. Actual dose volumes changed throughout the study and ranged from 300 to 310 μL. Endpoints include daily clinical observations and body weights. Creatinine, insulin, Protein Urea/Creatinine levels, clinical pathology and gross pathology at necropsy were also obtained. The mice were euthanized and necropsied on Day 28.
Referring now to FIG. 11, Protein Urea/Creatinine Levels are measured and shown. Creatinine levels are directly related to muscle mass in mice and so higher Creatinine is correlated with higher muscle mass. A healthy Protein Urea to Creatinine level is 1. Higher levels imply kidney damage. […] Optimal Protein Urea: Creatinine is 1.

BKS.Cg-Dock7m mice [2] = assay: Serum insulin ELISA in diabetic obese mice after 28 days of dosing; type: in vivo; conditions: for Serum insulin levels compared to vehicle control: at necropsy after 28 consecutive days, Test Compound 1 at 1× or 3× IP, Metformin oral gavage
Protocol: as §1
(§3) Animals were manually restrained and administered Metformin by oral gavage using a disposable gavage needle. The target dose was 5 mL/kg, and actual dose volumes ranged from 190 to 260 μL/animal.
(§4) Amylase was purchased from Abcam (product ID: ab77861) at a dilution of 340 Units/mL. Each animal was treated with Amylase to achieve a dilution of 80 Units/L of blood. The test compound was diluted in phosphate buffer saline (PBS) and each day the test animals were injected with 300 uL of the Amylase-PBS solution. For every 299.4 uL of PBS, 0.6 uL of Amylase was used to achieve a concentration of 80 Units/Liter assuming a body weight of 45 g. The aliquots were stored at −80 C.
Amylase was purchased from Abcam (product ID: ab77861) at a dilution of 340 Units/mL. Each animal was treated with Amylase to achieve a dilution of 240 Units/L of blood. […]
1× (used synonymously with TV1) and 3× (used synonymously with TV2) doses of human alpha-Amylase enzyme (referred to herein as Test Compound 1) were determined to be 80 Units/Liter of blood volume and 240 Units/Liter of blood volume respectively. […]
Referring now to FIG. 9, insulin values were measured in serum from four animals from each treatment group at the time of necropsy following 28 consecutive days of dosing with Control (metformin), Test Compound 1 (SEQ ID NO 1), or vehicle alone. […] The processed plates were read using a Molecular Devices VersaMax plate reader.

BKS.Cg-Dock7m mice [3] = assay: Body weight loss in diabetic obese mice; type: in vivo
Protocol: as §1, §3, §4
Amylase was purchased from Abcam (product ID: ab77861) at a dilution of 340 Units/mL. Each animal was treated with Amylase to achieve a dilution of 240 Units/L of blood. The test compound was diluted in phosphate buffer saline (PBS) and each day the test animals were injected with 300 uL of the Amylase-PBS solution. For every 298.3 uL of PBS, 1.7 uL of Amylase was used to achieve a concentration of […] assuming a body weight of 45 g. The aliquots were stored at −80 degrees C.
as §2
Body weights were measured prior to the study for randomization. Additional weekly body weights were collected throughout the study. We also were interested in weight loss for the animals for various treatment regimens. Referring now to Table 1 weight loss data as a percent weight loss with the reference being the weight before any treatment is illustrated for each test group. […] As with the insulin data, there is a dose dependent trend between 1× and 3×. The higher dose of Test Compound 1 outperforms metformin.

Mast cells = assay: Histamine ELISA of IgE/anti-IgE-induced mast cell degranulation; type: cell-based; conditions: for Histamine release (ELISA): 1× (100 Units/L) and 10× (1000 Units/L) Amylase, IgE + anti-IgE
Protocol: Referring now to FIG. 1, Mast cells were treated with IgE, anti-IgE and varying doses of alpha-Amylase in a medium that would permit binding. In this experiment, Mast cells were grown to confluence, harvested and resuspended in 8 ml PBS and a 3 ml aliquot was plated in triplicate. 0.29 ml (100 Units) of Amylase was added to 0.7 mL PBS bringing the total volume to 1 mL. 3 μL was used in the 1× Amylase dose and 30 μL was used in the 10× Amylase dose. 1 set of triplicates was incubated with 1× Amylase (100 Units/L) and the second set with 10× Amylase (1000 Units/L). After 10 minutes, 250 μL of IgE was added, and then 200 μL of anti-IgE. The cells were incubated at 37 degrees Celsius during this time. 50 μL was taken at 1 hour, 2.5 hours and 4 hours and subjected to histamine level analysis via ELISA. A control set was co-incubated with PBS.
Anti-IgE when added to IgE-incubated Mast cells causes degranulation. Histamine release occurs during degranulation. Measurements were taken from all three subsets at 1 hour, 2.5 hours and 4 hours and subjected to analysis of histamine levels by ELISA from Oxford Biolabs. FIG. 1 is a graph of the results of an ELISA in which histamine levels are measured. Higher absorbance rates correlate to lower levels of Histamine.
Degranulation based upon the Immunoglobulin-E (IgE)-Anti-IgE reaction is well documented in the literature. Histamine levels were detected by an ELISA kit and served as a marker for degranulation. […] This implies that cellular degranulation was prevented in a time and dose-dependent manner by the addition of Amylase.

IgE = assay: Co-immunoprecipitation of Amylase and IgE; type: binding
Protocol: Referring now to FIG. 3, an immunoblot is shown having samples in lanes 1-8. The samples are prepared as follows. 10 μg of Amylase was mixed with 1 μg of IgE and incubated overnight at 4° C. and then for one hour at 37° C. Anti-Amylase antibody was used for immunoprecipitation. Anti-IgE antibody was used for immunoblotting. BSA was used as a competitive binding control. A sample with no IgE and […] of BSA+10 microgram of Amylase (lane 2) was used as negative control for immunoblotting. (Lanes 3 and 4 represent 0.5 μg BSA, lanes 5 and 6 represent 0.5 μg BSA and lanes 7 and 8 represent 0.05 μg BSA). After immunoprecipitation, pellets were dissolved in 45 microliters of Laemmli sample buffer and 15 microliters were loaded on the gel. 1 microgram of IgE was used as positive control (lane 1).
Referring now to FIG. 2, an immunoblot is shown having samples in lanes 1-8. The samples are prepared as follows.

BKS.Cg-Dock7m mice [4] = assay: Urine creatinine vs percentage of total weight loss; type: in vivo; conditions: 1× dose
Protocol: as §1
1× (used synonymously with TV1) and 3× (used synonymously with TV2) doses of human alpha-Amylase enzyme (referred to herein as Test Compound 1) were determined to be 80 Units/Liter of blood volume and 240 Units/Liter of blood volume respectively. Animals were manually restrained and administered a target volume of 300 μL of phosphate buffered saline (PBS) (vehicle), by IP injection, once per day, on Days 1-28. Actual dose volumes changed throughout the study and ranged from 300 to 310 μL. Endpoints include daily clinical observations and body weights. […]
The source of the weight loss, (whether fat or muscle) is physiologically critical. […] Referring now to FIG. 10, to quantify the source of the weight loss, we examined urine creatinine levels in the test animals. […]

[5] = Metformin positive control, oral gavage
[6] = 1X dose (80 Units/Liter of blood volume) IP daily
[7] = 3X dose (240 Units/Liter of blood volume) IP daily

## CN(C)C(=N)N=C(N)N [Metformin, Metformin hydrochloride, reference compound]
BKS.Cg-Dock7m mice [1]
  Nephroprotective effect: nephroprotective
BKS.Cg-Dock7m mice [2]
  Serum insulin levels compared to vehicle control: moderate decreases in serum insulin levels compared to vehicle control animals
BKS.Cg-Dock7m mice [3]; [5]
  Body Weight % Lost, % Weight loss n = 4: 7%
  Body Weight % Lost, % Weight loss n = 6: 6.9%
  Body Weight % Lost, % Weight loss raw: 7.4%

B1: Test Compound 1: human alpha-Amylase enzyme (SEQ ID NO 1, pancreatic Amylase alpha 2A), purchased from Abcam (product ID: ab77861) (protein)
chain: QYSPNTQQGRTSIVHLFEWRWVDIALECERYLAPKGFGGVQVSPPNENVAIYNPFRPWWERYQPVSYKLCTRSGNEDEFRNMVTRCNNVGVRIYVDAVINHMCGNAVSAGTSSTCGSYFNPGSRDFPAVPYSGWDFNDGKCKTGSGDIENYNDATQVRDCRLTGLLDLALEKDYVRSKIAEYMNHLIDIGVAGFRLDASKHMWPGDIKAILDKLHNLNSNWFPAGSKPFIYQEVIDLGGEPIKSSDYFGNGRVTEFKYGAKLGTVIRKWNGEKMSYLKNWGEGWGFVPSDRALVFVDNHDNQRGHGAGGASILTFWDARLYKMAVGFMLAHPYGFTRVMSSYRWPRQFQNGNDVNDWVGPPNNNGVIKEVTINPDTTCGNDWVCEHRWRQIRNMVIFRNVVDGQPFTNWYDNGSNQVAFGRGNRGFIVFNNDDWSFSLTLQTGLPAGTYCDVISGDKINGNCTGIKIYVSDDGKAHFSISNSAEDPFIAIHAESKL
modifications: homo sapien
Mast cells; 1 hour, vs PBS control
  Histamine release (ELISA): the levels of Histamine released in the 1× and 10× doses were the same, with higher release in the negative control
Mast cells; 2.5 hours
  Histamine release (ELISA): dose dependency with less histamine release compared to 1 hour
Mast cells; 4 hours
  Histamine release (ELISA): greater histamine release in the 1× and 10× doses
Mast cells; overall, samples treated with Amylase, 1 to 4 hours, 1× and 10×
  Histamine levels as marker for degranulation: lower in a manner that was both time and dose dependent
BKS.Cg-Dock7m mice [1]
  Nephroprotective effect: nephroprotective
BKS.Cg-Dock7m mice [1]; treatment group 2 (1× dose) vs group 4 (metformin) and group 1 (vehicle)
  Protein Urea to Creatinine ratio in urine: lower Protein Urea to Creatinine ratio compared to urine from animals in treatment group 4 or animals in treatment group 1
BKS.Cg-Dock7m mice [2]; Treatment Group 3: 3× dose (240 Units/liter of blood volume) IP, 28 days
  Change in insulin levels: did exhibit a change in insulin levels
BKS.Cg-Dock7m mice [2]
  Serum insulin levels compared to vehicle control: moderate decreases in serum insulin levels compared to vehicle control animals
IgE; 1 μg IgE + 0.5, 5, 10 μg Amylase, anti-IgE immunoprecipitation, anti-Amylase immunoblot
  Amylase co-immunoprecipitation with IgE: binding of Amylase and IgE was observed to behave in a dose-dependent manner
IgE; 10 μg Amylase + 1 μg IgE, anti-Amylase immunoprecipitation, anti-IgE immunoblot, BSA as competitive binding control
  IgE co-immunoprecipitation with Amylase: IgE immunoprecipitated with Amylase under conditions of increasing concentrations of BSA, demonstrating little non-specific binding
BKS.Cg-Dock7m mice [3]; [6]
  Body Weight % Lost, % Weight loss n = 4: 5%
  Body Weight % Lost, % Weight loss n = 6: 5.2%
  Body Weight % Lost, % Weight loss raw: 5.5%
BKS.Cg-Dock7m mice [3]; 1× and 3× doses
  Weight loss compared with metformin: dose-dependency in weight loss with our 1× of Test Compound 1 and 3× of Test Compound 1 doses outperforming metformin
BKS.Cg-Dock7m mice [3]; [7]
  Body Weight % Lost, % Weight loss n = 4: 10%
  Body Weight % Lost, % Weight loss n = 6: 8.3%
  Body Weight % Lost, % Weight loss raw: 7.4%
BKS.Cg-Dock7m mice [4]
  Source of the weight loss (fat or muscle) from urine creatinine: the majority of weight lost is fat content and muscle mass is preserved
